Measured values: patent publication US20250388666A1 (BRIGHAM AND WOMEN S HOSPITAL, published 2025)
Changes are numbered by the printed parent chain. In names and notes the source's numbering stands.

T1: CEACAM1 (Sino Biological) (human, UniProt P13688 35-428, limits assumed)
T1 construct: may be the same as CEACAM1-HIS; also called hCEACAM1; biotinylated soluble CEACAM1
T1 sequence: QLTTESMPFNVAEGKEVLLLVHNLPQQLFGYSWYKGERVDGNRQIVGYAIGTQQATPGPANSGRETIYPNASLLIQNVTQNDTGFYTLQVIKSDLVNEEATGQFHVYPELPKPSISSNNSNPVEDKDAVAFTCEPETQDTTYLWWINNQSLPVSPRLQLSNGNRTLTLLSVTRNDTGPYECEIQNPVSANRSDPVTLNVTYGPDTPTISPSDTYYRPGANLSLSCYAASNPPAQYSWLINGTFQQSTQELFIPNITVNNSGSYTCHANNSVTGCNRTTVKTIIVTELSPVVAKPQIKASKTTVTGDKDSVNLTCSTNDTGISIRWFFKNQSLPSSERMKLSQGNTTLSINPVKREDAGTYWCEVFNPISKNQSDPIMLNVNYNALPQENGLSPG

B1: He3/L4 #1 (antibody, IgG4, V domains shown)
VH: EVQLLESGGGLVQPGGSLRLSCAASGFSFSDYYLYWVRQAPGKGLEWVATISVGGGQTSYADSVKGRFTISRDNSKNTLYLQMNSLRAEDTAMYYCTRALTYGPAWLAYWGQGTLVTVSS
VL: DIVMTQSPDSLAVSLGERATINCKSSQSLLNSANQKNYLAWYQQKPGQPPKLLIYFASTRESGVPDRFSGSGSGTDFTLTISSLQAEDVAVYYCQSHFPYYYTFGGGTKVEIK
notes: IgG4 S241P, kappa
B2: He4/L19 (antibody, IgG4, V domains shown)
VH: B1 VH with T101Y, L107F
VL: B1 VL with F98I, P99Y, Y100P, Y101N, Y102F
notes: IgG4 S241P, kappa
B3: He4/L2 (antibody, IgG4, V domains shown)
VH: B1 VH with T101Y, L107F
VL: B1 VL with F98Y, Y100F, Y101P
notes: IgG4 S241P, kappa
B4: He4/L5 (antibody, IgG4, V domains shown)
VH: B1 VH with T101Y, L107F
VL: B1 VL with F98Y, Y100F, Y101A, Y102F
notes: IgG4 S241P, kappa
B5: He6/L4 #1 (antibody, IgG4, V domains shown)
VH: B1 VH with T97A, L100R, L107F
VL: B1 VL
notes: IgG4 S241P, kappa
B6: He3/L4#2 (antibody, IgG4, V domains shown)
VH: B1 VH
VL: B1 VL with F98Y, Y101P
notes: IgG4 S241P, kappa
B7: He6/L6 (antibody, IgG4, V domains shown)
VH: B1 VH with T97A, L100R, L107F
VL: B1 VL with F98Y, Y100F, Y101S, Y102F
notes: IgG4 S241P, kappa
B8: He6/L3 (antibody, IgG4, V domains shown)
VH: B1 VH with T97A, L100R, L107F
VL: B1 VL with Y100F, Y101P, Y102F
notes: IgG4 S241P, kappa
B9: He3/L5 (antibody, IgG4, V domains shown)
VH: B1 VH
VL: B1 VL with F98Y, Y100F, Y101A, Y102F
notes: IgG4 S241P, kappa
B10: He3/L6 (antibody, IgG4, V domains shown)
VH: B1 VH
VL: B1 VL with F98Y, Y100F, Y101S, Y102F
notes: IgG4 S241P, kappa
B11: He3/L17 (antibody, IgG4, V domains shown)
VH: B1 VH
VL: B1 VL with F98Y, Y101P
notes: IgG4 S241P, kappa
B12: He4/Parent VL (antibody, IgG4, V domains shown)
VH: B1 VH with T101Y, L107F
VL: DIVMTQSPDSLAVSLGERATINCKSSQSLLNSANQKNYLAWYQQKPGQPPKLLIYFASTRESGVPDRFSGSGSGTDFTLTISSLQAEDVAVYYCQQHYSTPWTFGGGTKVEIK
notes: IgG4 S241P, kappa
B13: He3/L19 (antibody, IgG4, V domains shown)
VH: B1 VH
VL: B1 VL with F98I, P99Y, Y100P, Y101N, Y102F
notes: IgG4 S241P, kappa
B14: He3/L16 (antibody, IgG4, V domains shown)
VH: B1 VH
VL: B1 VL with F98Y, Y101P, Y102F
notes: IgG4 S241P, kappa
B15: He4/L18 (antibody, IgG4, V domains shown)
VH: B1 VH with T101Y, L107F
VL: B1 VL with Y101P, Y102F
notes: IgG4 S241P, kappa
B16: He4/L3 (antibody, IgG4, V domains shown)
VH: B1 VH with T101Y, L107F
VL: B1 VL with Y100F, Y101P, Y102F
notes: IgG4 S241P, kappa
B17: He4/L20 (antibody, IgG4, V domains shown)
VH: B1 VH with T101Y, L107F
VL: B1 VL with Y101P, Y102L
notes: IgG4 S241P, kappa
B18: He4/L4#2 (antibody, IgG4, V domains shown)
VH: B1 VH with T101Y, L107F
VL: B1 VL with F98Y, Y101P
notes: IgG4 S241P, kappa
B19: He6/L5 (antibody, IgG4, V domains shown)
VH: B1 VH with T97A, L100R, L107F
VL: B1 VL with F98Y, Y100F, Y101A, Y102F
notes: IgG4 S241P, kappa
B20: He4/L6 (antibody, IgG4, V domains shown)
VH: B1 VH with T101Y, L107F
VL: B1 VL with F98Y, Y100F, Y101S, Y102F
notes: IgG4 S241P, kappa
B21: He6/L16 (antibody, IgG4, V domains shown)
VH: B1 VH with T97A, L100R, L107F
VL: B1 VL with F98Y, Y101P, Y102F
notes: IgG4 S241P, kappa
B22: He6/L2 (antibody, IgG4, V domains shown)
VH: B1 VH with T97A, L100R, L107F
VL: B1 VL with F98Y, Y100F, Y101P
notes: IgG4 S241P, kappa
B23: He6/L20 (antibody, IgG4, V domains shown)
VH: B1 VH with T97A, L100R, L107F
VL: B1 VL with Y101P, Y102L
notes: IgG4 S241P, kappa
B24: He6/L17 (antibody, IgG4, V domains shown)
VH: B1 VH with T97A, L100R, L107F
VL: B1 VL with F98Y, Y101P
notes: IgG4 S241P, kappa
B25: He3/Parent VL (antibody, IgG4, V domains shown)
VH: B1 VH
VL: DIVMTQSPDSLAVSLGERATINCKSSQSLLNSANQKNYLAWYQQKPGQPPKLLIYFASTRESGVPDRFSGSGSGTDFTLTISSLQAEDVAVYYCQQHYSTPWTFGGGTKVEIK
notes: IgG4 S241P, kappa
B26: He4/L4 #1 (antibody, IgG4, V domains shown)
VH: B1 VH with T101Y, L107F
VL: B1 VL
notes: IgG4 S241P, kappa
B27: He3/L18 (antibody, IgG4, V domains shown)
VH: B1 VH
VL: B1 VL with Y101P, Y102F
notes: IgG4 S241P, kappa
B28: He4/L17 (antibody, IgG4, V domains shown)
VH: B1 VH with T101Y, L107F
VL: B1 VL with F98Y, Y101P
notes: IgG4 S241P, kappa
B29: He6/L19 (antibody, IgG4, V domains shown)
VH: B1 VH with T97A, L100R, L107F
VL: B1 VL with F98I, P99Y, Y100P, Y101N, Y102F
notes: IgG4 S241P, kappa
B30: He6/L1 (antibody, IgG4, V domains shown)
VH: B1 VH with T97A, L100R, L107F
VL: B1 VL with F98Y, Y100F
notes: IgG4 S241P, kappa
B31: He6/L18 (antibody, IgG4, V domains shown)
VH: B1 VH with T97A, L100R, L107F
VL: B1 VL with Y101P, Y102F
notes: IgG4 S241P, kappa
B32: He4/L1 (antibody, IgG4, V domains shown)
VH: B1 VH with T101Y, L107F
VL: B1 VL with F98Y, Y100F
notes: IgG4 S241P, kappa
B33: He6/L4#2 (antibody, IgG4, V domains shown)
VH: B1 VH with T97A, L100R, L107F
VL: B1 VL with F98Y, Y101P
notes: IgG4 S241P, kappa

Target: T1, CEACAM1 (Sino Biological)
Test: SPR single-cycle
Procedure: To assess the binding of the humanized affinity matured IgGs, single cycle kinetics analysis was performed on crude supernatants using a Biacore T200 running Biacore T200 Control Software V2.0.1 and Biacore T200 Evaluation Software V3.0 (Uppsala, Sweden). Antibodies were diluted in HBS-P+ (GE Healthcare) to a final concentration of […]. At the start of each cycle, antibodies were loaded onto Fc2, Fc3 and Fc4 of the Protein A chip (GE Healthcare). IgGs were captured at a flow rate of 10 μl/min to give an immobilization level (RL) of ˜100 RU (a level calculated to obtain an Rmax of ˜50-150 RU once the analyte is bound). The surface was then allowed to stabilize. Single cycle kinetics data was obtained with CEACAM1 as the analyte at a flow rate of […] to minimize any potential mass transfer effects. Multiple repeats with the parent (VH2 N56Q/Vκ4 S27(f)A) antibody were performed to check the stability of the surface and analyte over the kinetic cycles. The signal from the reference channel Fc1 (no antibody) was subtracted from that of Fc2, Fc3 and Fc4 to correct for differences in non-specific binding to the reference surface. A three point, two-fold dilution range from 25 nM to 100 nM CEACAM 1 without regeneration between each concentration was used. The signal from each antibody blank run (no CEACAM1) was subtracted to correct for differences in surface stability. The association phase for the three injections of increasing concentrations of CEACAM1 was monitored for 200 seconds each time and a single dissociation phase was measured for 300 seconds following the last injection of CEACAM1. Regeneration of the Protein A surface was conducted using two injections of 10 mM glycine-HCL pH 1.5 followed by a stabilization period of 240 seconds.

| Kd [nM] | fold better than Parent (KD) [fold] | Binder |
| --- | --- | --- |
| 99 | 1.61 | B1 |
| 90 | 1.77 | B2 |
| 76 | 2.09 | B3 |
| 68 | 2.36 | B4 |
| 155 | 1.03 | B5 |
| 130 | 4.24 | B6 |
| 89 | 1.78 | B7 |
| 94 | 1.69 | B8 |
| 95 | 1.68 | B9 |
| 93 | 1.72 | B10 |
| 83 | 1.91 | B11 |
| 155 | 1.03 | B12 |
| 135 | 1.18 | B13 |
| 72 | 2.22 | B14 |
| 55 | 2.89 | B15 |
| 55 | 2.87 | B16 |
| 90 | 1.77 | B17 |

| Kd [nM] | fold better than Parent (KD) [fold] | Binder |
| --- | --- | --- |
| 127 | 4.34 | B18 |
| 84 | 1.89 | B19 |
| 72 | 2.22 | B20 |
| 66 | 2.41 | B21 |
| 104 | 1.53 | B22 |
| 89 | 1.79 | B23 |
| 91 | 1.75 | B24 |
| 78 | 2.03 | B25 |
| 83 | 1.91 | B26 |
| 82 | 1.94 | B27 |
| 62 | 2.55 | B28 |
| 237 | 0.67 | B29 |
| 98 | 1.62 | B30 |
| 83 | 1.92 | B31 |
| 64 | 2.49 | B32 |
| 146 | 3.78 | B33 |
